# B1: Cyclin H (1–323) (natural protein, human, UniProt P51946 1-323, looked up)
# chain: MYHNSSQKRHWTFSSEEQLARLRADANRKFRCKAVANGKVLPNDPVFLEPHEEMTLCKYYEKRLLEFCSVFKPAMPRSVVGTACMYFKRFYLNNSVMEYHPRIIMLTCAFLACKVDEFNVSSPQFVGNLRESPLGQEKALEQILEYELLLIQQLNFHLIVHNPYRPFEGFLIDLKTRYPILENPEILRKTADDFLNRIALTDAYLLYTPSQIALTAILSSASRAGITMESYLSESLMLKENRTCLSQLLDIMKSMRNLVKKYEPPRSEEVAVLKQKLERCHSAELALNVITKKRKGYEDDDYVSKKSKHEEEEWTDDDLVESL
# notes: Cyclin H, human, residues 1-323; also called CycH
# Biological target: T1, GST-Cdk7 (2–346) (human, UniProt P50613 2-346)
# T1 construct: Cdk7, human, residues 2-346
# Assay: pull-down; 10 µg of purified CDK–cyclin complex immobilised by its GST-tagged subunit on GSH 4B sepharose beads in 100 µl PBS; incubated 1 h in PBS or PBS with 5% 1,6-hexanediol; washed three times; eluted in SDS-sample buffer; Coomassie-stained SDS-PAGE
# Conditions: both partners purified
# T1 sequence (P50613 2-346): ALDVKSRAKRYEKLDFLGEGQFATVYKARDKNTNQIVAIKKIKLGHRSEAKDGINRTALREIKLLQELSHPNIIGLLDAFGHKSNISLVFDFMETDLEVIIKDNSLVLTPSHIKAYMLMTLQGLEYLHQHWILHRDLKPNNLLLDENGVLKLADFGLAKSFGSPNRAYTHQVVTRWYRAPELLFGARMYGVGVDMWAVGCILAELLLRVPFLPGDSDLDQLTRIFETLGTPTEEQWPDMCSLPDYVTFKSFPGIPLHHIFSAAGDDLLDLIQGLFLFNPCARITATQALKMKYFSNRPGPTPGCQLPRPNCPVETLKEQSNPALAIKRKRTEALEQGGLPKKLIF
binder,measurement,value
B1,binding result,binds

# From article PMC7948595, “1,6-Hexanediol, commonly used to dissolve liquid–liquid phase separated condensates, directly impairs kinase and phosphatase activities” (The Journal of Biological Chemistry, 2021)
